The conditions of series [1]: background statement; cited from earlier work.
Substrate in series [2]: COc1cccc2c1CCOC2C1=NCCN1
Description: Incubation with rhCYP2D6 Supersomes: intrinsic clearance and enzyme kinetics. It is filed as in vitro ADME, human. The note with it: other: rhCYP2D6, 0.16-100 μM, 10 pmol/ml CYP. The procedure: The objective of these studies was to identify enzymes involved in the metabolism of tasipimidine in human. The test substance tasipimidine and the reference compounds for main tasipimidine metabolites 1-(4,5-dihydro-1H-imidazol-2-yl) isochroman-5-ol (metabolite 1), 2-(5-methoxyisochroman-1-yl)-1H-imidazole (metabolite 2), and 1-(1H-imidazol-2-yl) isochroman-5-ol (metabolite 3) were supplied by Orion Pharma. To further support the findings of recombinant enzyme incubations tasipimidine was incubated with human hepatocytes with two enzyme inhibitors, i.e. 1-aminobenzotriazole (ABT, non-selective CYP inhibitor), and quinidine (CYP2D6 inhibitor).
Moreover, enzyme kinetics of tasipimidine metabolism was studied in rhCYP2D6.
Enzyme kinetics of tasipidimine metabolism by rhCYP2D6 was studied by incubating the test compound at 0.16, 0.41, 1, 2.6, 6.4, 16, 40 and 100 μM concentrations containing 10 pmol/ml of the CYP enzyme for 0, 5, 10, 20, and 30 min. Enzyme kinetics was estimated from CLint values measured for the test compound at different concentrations while metabolite characterisation was not performed.
The analysis for disappearance of tasipimidine and the identification of the formed metabolites were carried out by using a high-resolution liquid chromatographic-mass spectrometer supported by accurate masses (UPLC-HRMS). […]

Substrate in series [3]: COc1cccc2c1CCOC2C1=NCCN1
Description: CYP2D6 kinetic parameters (PBPK input parameters). It counts as in vitro ADME. The settings on record: other: input parameter of the PBPK model. An excerpt: A physiologically based pharmacokinetic (PBPK) model was used to simulate the plasma exposure of tasipimidine in fasted healthy 30 years old males of 70 kg with different CYP2D6 phenotypes. Simulations were produced with the commercial GastroPlus® 9.8.2 software.

The values below come from patent publication US20260097017A1, “TASIPIMIDINE AND CYP2D6 INHIBITOR COMBINATION TREATMENT” (ORION CORPORATION, priority 2022, published 2026).

Take `Clc1cccc(Cl)c1N=C1NCCN1` [clonidine]: the “elimination half-life (t1/2)” value in series [1] is 14 h.

B1: rhCYP2D6 (Homo sapiens) (protein)
chain: MGLEALVPLAVIVAIFLLLVDLMHRRQRWAARYPPGPLPLPGLGNLLHVDFQNTPYCFDQLRRRFGDVFSLQLAWTPVVVLNGLAAVREALVTHGEDTADRPPVPITQILGFGPRSQGVFLARYGPAWREQRRFSVSTLRNLGLGKKSLEQWVTEEAACLCAAFANHSGRPFRPNGLLDKAVSNVIASLTCGRRFEYDDPRFLRLLDLAQEGLKEESGFLREVLNAVPVLLHIPALAGKVLRFQKAFLTQLDELLTEHRMTWDPAQPPRDLTEAFLAEMEKAKGNPESSFNDENLRIVVADLFSAGMVTTSTTLAWGLLLMILHPDVQRRVQQEIDDVIGQVRRPEMGDQAHMPYTTAVIHEVQRFGDIVPLGVTHMTSRDIEVQGFRIPKGTTLITNLSSVLKDEAVWEKPFRFHPEHFLDAQGHFVKPEAFLPFSAGRRACLGEPLARMELFLFFTSLLQHFSFSVPTGQPRPSHHGVFAFLVSPSPYELCAVPR
notes: purchased; host or cells: baculovirus-transfected insect cells
By Km is commonly meant the substrate concentration at which the rate is half of its maximum. For B1, in series [2], the Km turned out to be 0.53 µM and the kcat was 3.1 pmol/min/pmol CYP.

B2: CYP2D6 (Homo sapiens) (protein)
chain: B1 chain
On to B2, for which, in series [3], the Km turned out to be 0.106 mg/L.
